Measurements taken from EP4574844A1 (Numab Therapeutics AG, dated 2025).
Blank lines part the entries; values can stand above or below the binder they belong to.

What was measured:
[1] = biological target: T1, human LILRB2 on the cell surface (human, UniProt Q8N423 22-597); assay: cell-based or functional assay
[2] = biological target: T1, human LILRB2 on the cell surface; assay: cell-based or functional assay; remark: listed apart in the source
[3] = biological target: T2, LILRA1 on transiently transfected CHO cells (UniProt O75019 17-489, limits assumed); assay: CELISA, transiently transfected CHO cells
T2 construct: whole, on cells; V5 tag at the N-terminus

[4] = biological target: T3, LILRA2 on transiently transfected CHO cells (UniProt Q8N149 24-483); assay: CELISA, transiently transfected CHO cells
T3 construct: whole, on cells; V5 tag at the N-terminus

[5] = biological target: T4, LILRA3 on transiently transfected CHO cells (UniProt Q8N6C8 24-439); assay: CELISA, transiently transfected CHO cells
T4 construct: whole, on cells; V5 tag at the N-terminus

[6] = biological target: T5, LILRA4 on transiently transfected CHO cells (UniProt P59901 24-499); assay: CELISA, transiently transfected CHO cells
T5 construct: whole, on cells; V5 tag at the N-terminus

[7] = biological target: T6, LILRA5 on transiently transfected CHO cells (UniProt A6NI73 42-299); assay: CELISA, transiently transfected CHO cells
T6 construct: whole, on cells; V5 tag at the N-terminus

[8] = biological target: T7, LILRA6 on transiently transfected CHO cells (UniProt Q6PI73 24-481); assay: CELISA, transiently transfected CHO cells
T7 construct: whole, on cells; V5 tag at the N-terminus

[9] = biological target: T8, LILRB1 on transiently transfected CHO cells (UniProt Q8NHL6 24-650); assay: CELISA, transiently transfected CHO cells
T8 construct: whole, on cells; V5 tag at the N-terminus

[10] = biological target: T9, LILRB3 on transiently transfected CHO cells (UniProt O75022 24-631, limits assumed); assay: CELISA, transiently transfected CHO cells
T9 construct: whole, on cells; V5 tag at the N-terminus

[11] = biological target: T10, LILRB4 on transiently transfected CHO cells (UniProt Q8NHJ6 22-448); assay: CELISA, transiently transfected CHO cells
T10 construct: whole, on cells; V5 tag at the N-terminus

[12] = biological target: T11, LILRB5 on transiently transfected CHO cells (UniProt O75023 24-590, limits assumed); assay: CELISA, transiently transfected CHO cells
T11 construct: whole, on cells; V5 tag at the N-terminus

recombinant human PDL1 = biological target: T12, recombinant human PDL1 (human, UniProt Q9NZQ7 19-238, limits assumed); assay: SPR
T12 construct: SPR antigen; also called CD274; B7-H1

[13] = biological target: T13, recombinant cynomolgus PDL1 (cynomolgus monkey, UniProt G7PSE7 19-238); assay: SPR
T13 construct: also called cynom; PDL1

[14] = biological target: human PD-L1 on the cell surface (human, UniProt Q9NZQ7 19-290); assay: cell-based or functional assay
Fc-tagged human PDL2 = biological target: T14, Fc-tagged human PDL2 (human, UniProt Q9BQ51 20-220, limits assumed); assay: SPR, Fc-tagged human PDL2 captured, scFv as analyte
T14 sequence (looked up): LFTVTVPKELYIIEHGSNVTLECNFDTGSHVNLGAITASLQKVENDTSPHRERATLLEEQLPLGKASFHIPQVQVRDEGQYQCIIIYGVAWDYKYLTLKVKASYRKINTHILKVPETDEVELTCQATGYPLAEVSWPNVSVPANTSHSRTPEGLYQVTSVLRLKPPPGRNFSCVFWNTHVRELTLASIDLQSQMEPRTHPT

recombinant human LILRB2 = biological target: T15, recombinant human LILRB2 (human, UniProt Q8N423 22-460, limits assumed); assay: SPR, LILRB2 immobilised, scFv as analyte
T15 construct: also called ILT4

[15] = biological target: T1, human LILRB2 on the cell surface; assay: flow cytometry, CHO K1 cells expressing human LILRB2
[16] = biological target: T1, human LILRB2 on the cell surface; assay: flow cytometry, CHO cells expressing LILRB2; competitor HLA-G tetramer
[17] = biological target: T1, human LILRB2 on the cell surface; assay: flow cytometry, CHO cells expressing LILRB2; competitor HLA-A0301 dextramer
[18] = biological target: T1, human LILRB2 on the cell surface; assay: flow cytometry, CHO cells expressing LILRB2; competitor HLA-G tetramer; reference PRO2518

T15 sequence (Q8N423 22-460 limits assumed): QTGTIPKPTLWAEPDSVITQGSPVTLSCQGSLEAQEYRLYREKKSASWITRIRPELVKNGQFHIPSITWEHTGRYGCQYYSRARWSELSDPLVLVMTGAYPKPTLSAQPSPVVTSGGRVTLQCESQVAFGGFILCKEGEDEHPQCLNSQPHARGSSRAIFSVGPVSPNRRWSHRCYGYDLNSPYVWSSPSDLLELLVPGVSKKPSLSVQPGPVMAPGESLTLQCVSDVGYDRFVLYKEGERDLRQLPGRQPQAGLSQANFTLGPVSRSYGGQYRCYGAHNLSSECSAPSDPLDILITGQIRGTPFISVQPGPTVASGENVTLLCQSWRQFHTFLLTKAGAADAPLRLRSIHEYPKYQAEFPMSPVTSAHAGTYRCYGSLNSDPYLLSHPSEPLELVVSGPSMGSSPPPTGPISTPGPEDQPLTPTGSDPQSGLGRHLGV
T13 sequence (G7PSE7 entry or part of it): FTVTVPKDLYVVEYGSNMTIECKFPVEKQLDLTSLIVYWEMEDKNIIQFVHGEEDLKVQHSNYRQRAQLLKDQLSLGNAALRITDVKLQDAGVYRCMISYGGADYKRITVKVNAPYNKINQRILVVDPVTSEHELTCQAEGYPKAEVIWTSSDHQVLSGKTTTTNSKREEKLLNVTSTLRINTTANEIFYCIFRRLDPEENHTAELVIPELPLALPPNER
T1 sequence (Q8N423 22-597): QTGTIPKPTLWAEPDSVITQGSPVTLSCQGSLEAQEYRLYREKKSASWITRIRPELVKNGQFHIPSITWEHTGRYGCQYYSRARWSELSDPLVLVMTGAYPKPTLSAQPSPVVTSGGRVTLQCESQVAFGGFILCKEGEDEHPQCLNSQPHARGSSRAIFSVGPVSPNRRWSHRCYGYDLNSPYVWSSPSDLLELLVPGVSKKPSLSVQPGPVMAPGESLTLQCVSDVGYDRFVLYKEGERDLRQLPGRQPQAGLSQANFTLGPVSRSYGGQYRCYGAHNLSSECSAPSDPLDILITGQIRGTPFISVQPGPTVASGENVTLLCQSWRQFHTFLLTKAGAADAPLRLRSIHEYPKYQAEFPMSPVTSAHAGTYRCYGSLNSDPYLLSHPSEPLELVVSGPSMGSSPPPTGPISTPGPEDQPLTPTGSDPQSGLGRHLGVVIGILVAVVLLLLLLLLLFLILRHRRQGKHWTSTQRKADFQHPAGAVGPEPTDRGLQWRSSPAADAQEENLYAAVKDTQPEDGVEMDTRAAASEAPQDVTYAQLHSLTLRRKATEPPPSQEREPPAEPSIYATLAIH
T8 sequence (Q8NHL6 24-650): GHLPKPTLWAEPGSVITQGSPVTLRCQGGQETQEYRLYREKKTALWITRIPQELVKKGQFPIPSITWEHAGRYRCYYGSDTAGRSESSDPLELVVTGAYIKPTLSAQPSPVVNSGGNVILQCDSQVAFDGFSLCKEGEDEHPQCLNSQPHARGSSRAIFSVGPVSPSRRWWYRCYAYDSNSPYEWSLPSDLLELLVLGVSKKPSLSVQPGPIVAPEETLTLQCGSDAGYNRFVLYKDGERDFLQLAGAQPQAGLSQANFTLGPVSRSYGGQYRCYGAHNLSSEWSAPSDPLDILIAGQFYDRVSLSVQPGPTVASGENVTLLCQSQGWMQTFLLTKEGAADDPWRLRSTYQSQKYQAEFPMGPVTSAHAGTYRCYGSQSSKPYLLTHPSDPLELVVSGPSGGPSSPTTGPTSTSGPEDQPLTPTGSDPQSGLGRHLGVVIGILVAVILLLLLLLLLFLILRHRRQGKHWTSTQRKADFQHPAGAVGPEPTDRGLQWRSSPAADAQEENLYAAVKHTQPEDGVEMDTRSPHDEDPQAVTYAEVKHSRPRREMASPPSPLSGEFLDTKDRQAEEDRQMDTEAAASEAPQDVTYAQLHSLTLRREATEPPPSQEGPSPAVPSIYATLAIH
T2 sequence (O75019 17-489 limits assumed): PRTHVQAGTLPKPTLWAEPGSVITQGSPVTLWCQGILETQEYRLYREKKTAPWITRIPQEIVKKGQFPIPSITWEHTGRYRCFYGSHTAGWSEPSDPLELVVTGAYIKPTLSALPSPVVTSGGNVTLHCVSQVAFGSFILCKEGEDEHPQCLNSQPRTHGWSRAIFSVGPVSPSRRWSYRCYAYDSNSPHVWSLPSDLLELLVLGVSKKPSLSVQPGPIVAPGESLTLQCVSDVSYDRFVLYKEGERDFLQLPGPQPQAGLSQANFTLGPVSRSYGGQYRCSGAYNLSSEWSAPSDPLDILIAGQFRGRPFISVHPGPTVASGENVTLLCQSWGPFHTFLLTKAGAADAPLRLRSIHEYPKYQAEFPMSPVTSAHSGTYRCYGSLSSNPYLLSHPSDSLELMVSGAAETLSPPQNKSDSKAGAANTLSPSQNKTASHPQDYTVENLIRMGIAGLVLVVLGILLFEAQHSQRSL
T4 sequence (Q8N6C8 24-439): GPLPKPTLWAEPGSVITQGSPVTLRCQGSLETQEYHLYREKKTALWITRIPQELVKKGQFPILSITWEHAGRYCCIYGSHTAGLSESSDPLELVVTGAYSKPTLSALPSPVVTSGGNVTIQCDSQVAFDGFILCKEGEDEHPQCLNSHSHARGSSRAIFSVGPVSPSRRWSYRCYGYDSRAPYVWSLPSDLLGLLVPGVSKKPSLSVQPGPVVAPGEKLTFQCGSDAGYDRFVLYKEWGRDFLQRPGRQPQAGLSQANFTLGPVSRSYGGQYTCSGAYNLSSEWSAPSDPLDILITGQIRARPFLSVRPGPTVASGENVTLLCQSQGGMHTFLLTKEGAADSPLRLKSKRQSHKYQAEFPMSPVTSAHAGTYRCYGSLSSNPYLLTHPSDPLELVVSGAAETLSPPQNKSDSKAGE
T5 sequence (P59901 24-499): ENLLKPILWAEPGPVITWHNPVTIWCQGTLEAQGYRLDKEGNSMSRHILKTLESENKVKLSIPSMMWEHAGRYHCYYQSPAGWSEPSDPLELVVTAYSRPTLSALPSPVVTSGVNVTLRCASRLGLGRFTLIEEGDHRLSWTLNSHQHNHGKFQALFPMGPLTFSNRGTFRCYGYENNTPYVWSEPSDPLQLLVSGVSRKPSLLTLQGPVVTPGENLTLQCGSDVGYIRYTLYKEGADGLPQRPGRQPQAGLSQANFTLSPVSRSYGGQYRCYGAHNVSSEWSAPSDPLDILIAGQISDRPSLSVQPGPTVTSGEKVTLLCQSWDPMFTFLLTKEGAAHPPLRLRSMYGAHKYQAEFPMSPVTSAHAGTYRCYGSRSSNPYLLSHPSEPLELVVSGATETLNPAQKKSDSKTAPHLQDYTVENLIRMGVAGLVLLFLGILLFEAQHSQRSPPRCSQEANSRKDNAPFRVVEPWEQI
T3 sequence (Q8N149 24-483): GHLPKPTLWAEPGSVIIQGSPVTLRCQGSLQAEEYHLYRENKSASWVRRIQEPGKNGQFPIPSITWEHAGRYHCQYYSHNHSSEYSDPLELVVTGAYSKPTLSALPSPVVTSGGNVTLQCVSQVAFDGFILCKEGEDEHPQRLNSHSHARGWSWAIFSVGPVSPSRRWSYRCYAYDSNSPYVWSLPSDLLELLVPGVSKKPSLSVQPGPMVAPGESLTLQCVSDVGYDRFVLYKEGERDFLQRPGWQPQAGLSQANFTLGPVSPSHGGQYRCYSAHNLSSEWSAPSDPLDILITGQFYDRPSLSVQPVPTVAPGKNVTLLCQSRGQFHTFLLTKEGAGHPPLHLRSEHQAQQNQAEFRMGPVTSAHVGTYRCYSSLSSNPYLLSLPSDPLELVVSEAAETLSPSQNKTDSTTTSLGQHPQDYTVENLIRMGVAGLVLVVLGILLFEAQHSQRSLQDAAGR
T6 sequence (A6NI73 42-299): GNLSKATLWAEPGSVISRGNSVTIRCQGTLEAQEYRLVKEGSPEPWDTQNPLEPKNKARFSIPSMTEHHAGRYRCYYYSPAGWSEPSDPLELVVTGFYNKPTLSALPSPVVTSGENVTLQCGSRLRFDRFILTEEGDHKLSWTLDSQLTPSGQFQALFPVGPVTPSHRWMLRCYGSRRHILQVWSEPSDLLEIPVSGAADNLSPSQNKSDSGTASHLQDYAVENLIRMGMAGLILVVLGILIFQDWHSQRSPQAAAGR
T7 sequence (Q6PI73 24-481): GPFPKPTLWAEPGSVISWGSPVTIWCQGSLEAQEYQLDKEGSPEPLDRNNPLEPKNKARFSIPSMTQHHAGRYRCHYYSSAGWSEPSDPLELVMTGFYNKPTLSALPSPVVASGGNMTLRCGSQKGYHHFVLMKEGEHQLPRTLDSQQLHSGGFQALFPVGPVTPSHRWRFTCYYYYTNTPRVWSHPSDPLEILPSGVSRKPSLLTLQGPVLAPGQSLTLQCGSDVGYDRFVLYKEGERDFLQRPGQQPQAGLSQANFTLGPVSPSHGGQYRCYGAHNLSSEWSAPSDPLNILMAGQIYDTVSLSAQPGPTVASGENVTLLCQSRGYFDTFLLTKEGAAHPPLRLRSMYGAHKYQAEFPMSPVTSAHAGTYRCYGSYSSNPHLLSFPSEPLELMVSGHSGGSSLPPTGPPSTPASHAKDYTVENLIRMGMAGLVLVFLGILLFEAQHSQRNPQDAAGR
T11 sequence (O75023 24-590 limits assumed): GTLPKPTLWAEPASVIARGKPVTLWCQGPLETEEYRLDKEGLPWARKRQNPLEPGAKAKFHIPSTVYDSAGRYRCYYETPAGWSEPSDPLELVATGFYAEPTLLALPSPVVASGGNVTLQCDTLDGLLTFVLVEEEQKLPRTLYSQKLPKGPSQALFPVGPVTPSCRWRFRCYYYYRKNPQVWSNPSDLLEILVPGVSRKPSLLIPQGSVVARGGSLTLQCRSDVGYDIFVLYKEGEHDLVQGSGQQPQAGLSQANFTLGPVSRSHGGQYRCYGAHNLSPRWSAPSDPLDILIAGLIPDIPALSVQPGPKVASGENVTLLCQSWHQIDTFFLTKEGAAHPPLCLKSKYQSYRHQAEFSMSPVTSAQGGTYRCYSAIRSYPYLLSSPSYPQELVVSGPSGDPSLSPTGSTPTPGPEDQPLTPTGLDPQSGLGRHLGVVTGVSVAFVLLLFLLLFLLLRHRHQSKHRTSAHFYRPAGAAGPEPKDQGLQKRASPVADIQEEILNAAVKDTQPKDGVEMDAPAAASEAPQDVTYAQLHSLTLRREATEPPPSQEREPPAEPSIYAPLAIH

CD86 EC50 [nM], re-polarization of M2 macrophages [1]: 0.119 nM
CD163 EC50 [nM], re-polarization of M2 macrophages [1]: 0.072 nM
CD206 EC50 [nM], re-polarization of M2 macrophages [1]: 0.203 nM
IL-1β EC50 [nM], LPS-driven cytokine secretion [2]: 0.248 nM
IL-6 EC50 [nM], LPS-driven cytokine secretion [2]: 0.153 nM
TNF-α EC50 [nM], LPS-driven cytokine secretion [2]: 0.169 nM
binding result [3]: no binding (tested: up to 100 nM)
binding result [4]: no binding (tested: up to 100 nM)
binding result [5]: no binding (tested: up to 100 nM)
binding result [6]: no binding (tested: up to 100 nM)
binding result [7]: no binding (tested: up to 100 nM)
binding result [8]: no binding (tested: up to 100 nM)
binding result [9]: no binding (tested: up to 100 nM)
binding result [10]: no binding (tested: up to 100 nM)
binding result [11]: no binding (tested: up to 100 nM)
binding result [12]: no binding (tested: up to 100 nM)
B1: PRO4710 (antibody, human IgG4 S228P, kappa, V domains shown)
VH: QQLVESGGGLVQPGGSLRLSCAASGFSFTNNYYMCWVRQAPGKGLEWIACMLVGAWGNTYYASWANGRFTISKDNSKNTVYLQMNSLRAEDTAVYFCARARDYTWTLGGDPETSGFNLWGQGTLVTVSS
VL: DVQMTQSPSSLSASVGDRVTITCQASQSIGSNLAWYQQKPGKPPKLLIYKGGTLESGVPSRFSGSGSGTDFTLTISSLQPEDFATYYCQSTAGSSRSGNYGYVFGQGTKVEIKR
notes: anti-LILRB2 IgG4; also called 68-18-E11-sc07 IgG4; IgG4 variant of scFv PRO3744

Kd (recombinant human PDL1): 0.0109 nM
koff (recombinant human PDL1): 6.64e-05 s⁻¹
kon (recombinant human PDL1): 7.38e+06 M⁻¹ s⁻¹
Kd [13]: 0.0127 nM
koff [13]: 8.77e-05 s⁻¹
kon [13]: 6.88e+06 M⁻¹ s⁻¹
PDL1/PD-1 EC50 [nM], NFAT reporter gene assay [14]: 0.28 nM
PDL1/PD-1 Max. inhibition (rel. to avelumab) [%] [14]: 100%
binding result (Fc-tagged human PDL2): no binding (tested: 180 nM)
B2: PRO1347 (scFv)
scFv: DIQMTQSPASLSASVGDRVTITCQASQSIGTYLAWYQQKPGKPPKLLIYRAFILASGVPSRFSGSGSGTDFTLTISSLQPEDFATYYCQSNFYSDSTTIGPNAFGTGTKVTVLGGGGGSGGGGSGGGGSGGGGSEVQLVESGGGLVQPGGSLRLSCAASGFSFNSDYWIYWVRQAPGKGLEWIACIYGGSSGNTQYASWAQGRFTISRDNSKNTVYLQMNSLRAEDTAVYFCARGYVDYGGATDLWGQGTLVTVSS
notes: anti-PDL1 scFv; also called 37-20-B03-sc09

Kd (recombinant human LILRB2): 0.226 nM
koff (recombinant human LILRB2): 0.000166 s⁻¹
kon (recombinant human LILRB2): 736000 M⁻¹ s⁻¹
EC50 [15]: 0.796 nM
IC50 [16]: 1.08 nM
IC50 [17]: 0.867 nM
Rel. max. inhibition % (rel. to J-19) [18]: 98.4%
B3: PRO3696 (scFv)
scFv: DVQMTQSPSSLSASVGDRVTITCQASQSIGLNLAWYQQKPGKPPKLLIYAGGYLASGVSSRFSGSGSGTDFTLTISSLQPEDFATYYCQSTYDGSSFVFAFGTGTKVTVLGGGGGSGGGGSGGGGSGGGGSQEQLVESGGGLVQPGGSLRLSCAASGFSFSSSSYMCWVRQAPGKGLEWIACMVTGSSDDTDYASWAKGRFTISKDNSKNTVYLQMNSLRAEDSAVYFCARAGSAPLWGQGTLVKVSS
notes: anti-LILRB2 scFv; also called 69-01-E02-sc06
